Among the data in CN116063478A (BEIJING SHUNYUANTIAN BIOLOGICAL PRODUCTS CO LTD, dated 2023) are Kd values, retold here.

The Kd is the concentration at which binding is half-saturated. A lower Kd goes with higher affinity.

The target in the assay is 重组人Bromodomain结构域结合蛋白4(BRD4,区域49-170aa)(Biovision，货号:7643-100) (human, UniProt O60885 49-170). Nature of the assay: BLI (Fortebio Octet), binding kinetics; format not stated. In general terms: In BLI a coated tip is dipped into the sample, and binding shifts an interference pattern.

B1: BRD4-3F14单抗 (antibody, V domains shown)
VH: VKPGGSLKLSCAASRGWVDPYRMSWVRQTPDKRLEWVAIQITGHDFDYYPDSVKGRFTISRDQDKQTLYLQMSSLKSEDTAMYYCLGPKAVKHLELWGQGTTVTVS
VL: DLVMTQTAPSVPVTPGESVSISCRSTAWWYVWWMLWQLYWFLQRPGQSPQLLIYVYHNLASGVPDRFSGSGSGTAFTLRISRVEAEDVGVYYCWHFPRHKCSFGSGTKLEIK
The molecule B1 came in with a Kd of 1.07 nM.
